Measured values taken from patent US20210206842A1 (NATIONAL RESEARCH COUNCIL OF CANADA, published 2021).

T1: peptide #40a (40 aa) (human)
T1 construct: Custom-synthesized (Biomatik); also called pep #40a; P40a
T1 peptide: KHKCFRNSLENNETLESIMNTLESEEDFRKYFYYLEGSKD

T2: peptide #2a (20 aa) (human)
T2 construct: Custom-synthesized (Biomatik); also called pep #2a; P2a
T2 peptide: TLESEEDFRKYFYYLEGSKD

T3: peptide #2b (20 aa) (human)
T3 construct: Custom-synthesized (Biomatik); also called pep #2b; P2b
T3 peptide: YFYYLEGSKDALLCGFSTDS

B1: VHH DI-D (VHH)
VHH: QVKLEESGGGLVQPGGSLKLSCVASGFAFSSAPMDWVRKAPGKDVEWLSTIESDQDHTIYYANSVKGRFTISRDDVQNILYLQMNDLKIEDTATYYCQKRGEKKTRGQGTQVTVSS
notes: From the naive LAC-M library; soluble tagged monomer in protein ELISA, SPR and patch clamp; also called phage D; clone D; not shown: 6xHis and c-Myc tags on the soluble monomer
B2: anti-hNav1.7 mAb 2G11 (antibody, V domains shown)
VH: QVQLQQPGAELVKPGASVKLSCKASGYTFTTYWMHWVKQRPGQGLEWIGEINPSNGRANYNEKFKSKATLTVDKSSSTAYMQLSSLTSEDSAVYYCLRSLGYFDYWGQGTTLTVSS
VL: DVVMTQSPLSLPVSLGDQASISCRSSQSLVHSNGNTYLHWYLQKAGQSPKFLIYKVSNRFSGVPDRFSGSGSGTDFTLKISRVEAEDLGVYFCSQSTHVPYTFGGGTKLEIK

Key:
[1] = biological target: T4, FC5DIE3IR recombinant protein; test: SPR steady-state plot (Req against Conc up to 5e-6), VHH DI-D over immobilized FC5DIE3IR
T4 construct: Made in CHO-3E7 cells; also called FC5DIE31R; FC5DIE3R

[2] = biological target: T4, FC5DIE3IR recombinant protein; test: SPR (Biacore T200), VHH flowed over immobilized FC5DIE3IR, steady state fit, 25 C
Text: Surface Plasmon Resonance for VHH antibodies. […] Monomeric VHH fractions were collected and protein concentration determined by measuring A280 measurement. Using a Biacore T200 instrument (GE Healthcare), approximately 500-1000 RUs of FC5DIE3IR, FC5 and an irrelevant VHH (2A3-H4) were immobilized on a CM5 Series S sensor chip (GE Healthcare) at pH 4.0 using standard amine coupling according to the manufacturer's instructions (GE Healthcare). […] Surfaces were regenerated by washing with a 120 s pulse of 10 mM glycine pH 1.5. Data were analyzed with Biacore T200 Software v 3.0 and affinities determined using steady state binding or a 1:1 binding model.
Surface Plasmon Resonance (SPR).

human Nav1.7 polypeptide [3] = biological target: T5, human Nav1.7 polypeptide (human, UniProt Q15858 1-1988); test: cell-based or functional assay
[4] = biological target: T4, FC5DIE3IR recombinant protein; test: SPR, multiple cycle kinetics, VHH over immobilized FC5DIE3IR
[5] = biological target: T4, FC5DIE3IR recombinant protein; test: SPR (Biacore T200), single cycle kinetics, Fc-captured mAb, FC5DIE3IR flowed (320 nM-20 nM), 1:1 model, 25 C
Procedure: (§1) HBS-EP running buffer used for SPR experiments. […] Test binding experiments of FC5 control and FC5DIE3IR involved flowing 1 μM concentrations of SEC-pure material over the mAb surface at a flow rate of 30 μl/min for 5 min. Surfaces could be regenerated using 10 mM glycine, pH 1.7, with a 120 sec pulse at 20 μl/min. All SPR experiments were evaluated with Biacore T200 Software v 3.0. […] Regeneration conditions were the same as above. Data were fit to a 1:1 binding model and analyzed using the Biacore T200 Software v3.0.

[6] = biological target: T4, FC5DIE3IR recombinant protein; test: ELISA on coated FC5DIE3IR, serial dilutions of purified mAb, OD 405 nm; fit One site - Specific binding with Hill slope; apparent Kd in the unit of the concentration axis (nM), the table itself prints no unit
Procedure: (§2) Screening. Hybridoma supernatants were screened by ELISA to detect specific binders. To this end, 96-well half-area plates (Costar #3690) were coated with 25 μl of FC5DIE3IR or FC5-VHH or FC5-hFc-1X0 at 5 μg/ml in PBS and incubated overnight at 4° C. Microplates were washed 3 times with PBS, blocked with PBS-BSA 1%, and 25 μl of hybridoma supernatants were added and incubated at 37° C., 5% CO₂ for 2 hours. […] After 4 washes with PBS-Tween 20 0.05%, 25 μl of a 1 mg/ml pNPP substrate solution was added and further incubated for one hour at 37° C.
(§3) Evaluation of apparent affinity in ELISA. Purified antibodies were assessed for their binding activity by ELISA in a dose-dependent binding curve. Serial 1/3 dilutions of purified mAbs starting at 120 nM were applied onto wells and ELISA was performed as described above (screening section). The data were analyzed with GraphPad Prism software using one-site specific binding-with Hill slope non-linear regression curve fit model to determine Bₘₐₓ (maximum specific binding) and Kdₐₚₚ (concentration needed to achieve a half-maximum binding at equilibrium) for each mAb tested.

VHH FC5 [7] = biological target: T6, VHH FC5; test: SPR, single cycle kinetics, Fc-captured mAb, FC5 flowed, 25 C
T6 construct: put together from its FR and CDR entries; also called FC5-VHH; FC5 control
T6 sequence (VHH, as listed by the source): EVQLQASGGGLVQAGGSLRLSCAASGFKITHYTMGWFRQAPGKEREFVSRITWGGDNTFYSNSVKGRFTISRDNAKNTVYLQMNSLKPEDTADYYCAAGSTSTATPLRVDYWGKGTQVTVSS
Procedure: as §1

[8] = biological target: T4, FC5DIE3IR recombinant protein; test: ELISA, hybridoma supernatant on coated purified FC5DIE3IR
Procedure: as §2

human Nav1.7 polypeptide [9] = biological target: T5, human Nav1.7 polypeptide; test: cell ELISA, hybridoma supernatant on live CHO cells expressing human Nav1.7, duplicate 2
Procedure: (§4) Cell-ELISA. Sterile 96-well plates (Costar #3595) were pre-treated with 50 μl/well of branched polyethyleneimine (PEI, Sigma Cat #408727) at 25 μg/ml in PBS for 30 min at room temperature. PEI was removed and CHO-3E7 or hNAᵥ1.7-CHO (ChanTest cat #CT4003) were seeded at 6×10⁵ cells per well in FreeStyle F17 Expression Medium (Gibco Cat #A1383501) and incubated overnight at 37° C., 5% CO₂. Microplates were blocked with Starting block (Thermofisher Cat #37538) for 30 min at room temperature, and 50 μl of hybridoma supernatants were added and incubated at 4° C. for 3 h. […] After 10 washes with PBS, 50 μl of TMB substrate solution (Pierce Cat #34021) was added and further incubated for 60 min at room temperature.

human Nav1.7 polypeptide [10] = biological target: T5, human Nav1.7 polypeptide; test: cell ELISA, hybridoma supernatant on live CHO cells expressing human Nav1.7, duplicate 1
Procedure: as §4

VHH FC5 [11] = biological target: T6, VHH FC5; test: ELISA, hybridoma supernatant on coated purified FC5-VHH
Procedure: as §2

peptide #40a (40 aa) = biological target: T1, peptide #40a (40 aa); test: ELISA on coated peptide or FC5DIE3IR, mAb detected with HRP anti-mouse Fc, Abs 450nm
Procedure: (§5) The peptides were custom-synthesized (Biomatik) and tested for antibody binding by ELISA. […] The wells were blocked with 1% BSA in TBS-T for 30 min and then incubated with 1:1000 dilution of anti-hNaᵥ1.7 mAb at room temperature (RT) for one hr.

peptide #40b (40 aa) = biological target: T7, peptide #40b (40 aa) (human); test: as above
T7 construct: Custom-synthesized (Biomatik); also called pep #40b; P40b
Procedure: as §5

[12] = biological target: T4, FC5DIE3IR recombinant protein; test: ELISA on coated FC5DIE3IR, serial dilutions of purified mAb; fit One site - Specific binding with Hill slope
Procedure: as §2, §3

peptide #2a (20 aa) = biological target: T2, peptide #2a (20 aa); test: ELISA on coated P2a, mAb at the dilutions 1:1000, 1:5000 and 1:10000, Abs 450nm
Procedure: as §5

peptide #2b (20 aa) = biological target: T3, peptide #2b (20 aa); test: ELISA on coated P2b, mAb at the dilutions 1:1000, 1:5000 and 1:10000, Abs 450nm
Procedure: as §5

Binder | Kd [1] [nM] | Kd [2] [nM] | concentration response relationship (IC50), hNav1.7 currents (human Nav1.7 polypeptide [3]) [nM] | Kd [4] [nM] | Kd [5] [nM] | koff [5] [s⁻¹] | kon [5] [M⁻¹ s⁻¹] | Kd [6] [nM] | binding result (VHH FC5 [7]) | ELISA signal (OD 405 nm) [8] [OD 405 nm] | cell ELISA signal (OD 450 nm) (human Nav1.7 polypeptide [9]) | cell ELISA signal (OD 450 nm) (human Nav1.7 polypeptide [10]) | ELISA signal (OD 405 nm) (VHH FC5 [11]) | binding result (peptide #40a (40 aa)) | binding result (peptide #40b (40 aa)) | Bmax [12] [OD405 nm] | binding result (peptide #2a (20 aa)) | binding result (peptide #2b (20 aa))
B1 | 2040 | 1930 | 1480 | 2000 |  |  |  |  |  |  |  |  |  |  |  |  |  | 
B2 |  |  |  |  | 55.1 | 0.000526 | 9560 | 0.847 | no binding | 0.86 | 0.049 | 0.041 | 0.021 | binds | no binding | 1.84 | no binding (tested: 1:1000 dilution) | no binding (tested: 1:1000 dilution)
